# Measurements: paper PMC2699623 (Structure (London, England : 1993), 2009)
# B1: ALIX_(Vmut2) (domain or fragment)
# chain: PVSVQQSLAAYNQRKADLVNRSIAQMREATTLANGVLASLNLPAAIEDVSGDTVPQSILTKSRSVIEQGGIQTVDQLIKELPELLQRNREILDESLRLLDEEEATDNDLRAKFKERWQRTPSNELYKPLRAEGTNFRTVLDKAVQADGQVKECYQSHRDTIVLLCKPEPELNAAIPSANPAKTMQGSEVVNVLKSLLSNLDEVKKEREGLENDLKSVNFDMTSKFLTALAQDGVINEEALSVTELDRVYGGLTTKVQESLKKQEGLLKNIQVSHQEFSKMKQSYKKANLREEVLKNLATAYDNFVELVANLKEGTKFYNELTEILVRFQNKCSDIVFARKTER
# Key:
# [1] = biological target: ALIXV, the middle domain (V-domain) of ALIX (monomeric form) (UniProt Q8WUM4); assay: SEC-MALS
# [2] = biological target: ALIX_(Bro1-V), ALIX lacking the proline rich domain (monomeric form); assay: SEC-MALS
# [3] = biological target: peptide derived from EIAV Gag p9 (equine infectious anemia virus (EIAV)); assay: ITC
# SEC-MALS = biological target: the molecule itself; assay: SEC-MALS
molecule,measurement,setting,value
"ALIXV, the middle domain (V-domain) of ALIX (monomeric form) (from UniProt Q8WUM4 360-702) (domain or fragment)",stoichiometry N,[1],2
"ALIX_(Bro1-V), ALIX lacking the proline rich domain (monomeric form) (domain or fragment)",stoichiometry N,[2],2
dimeric ALIXV (from UniProt Q8WUM4 360-702) (complex),Kd,[3],8 µM
B1,stoichiometry N,SEC-MALS,2
